Source: US20250361322A1 (ICONIC THERAPEUTICS, published 2025)

Legend:
[1] = target: T1, human Tissue Factor (hTF) (human, UniProt P13726 33-295); assay: cell-based or functional assay
[2] = target: T2, human Tissue Factor on human TF-positive cells (human, UniProt P13726 33-295); assay: flow cytometry, titration of the MC-vc-PAB-MMAE ADC on HCT-116 cells (human TF), 4-parameter fit of MFI
T2 construct: also called hTF; CD142

[3] = target: T1, human Tissue Factor (hTF); assay: cell-based or functional assay; remark: listed apart in the source

| Binder | IC50, cell viability of A431 cells, Primary ADC, Continuous (FIG. 20A) [1] [nM] | IC50, cell viability of HPAF-II cells, Primary ADC, Continuous (FIG. 22E) [1] [nM] | IC50, cell viability of MDA-MB-231 cells, Primary ADC, Continuous (FIG. 22D) [1] [nM] | EC50 [2] [nM] | IC50, cell viability of A431 cells, Primary ADC, 4 hr, followed by washout (FIG. 20B) [3] [nM] | IC50, cell viability of A431 cells, Primary ADC, 4 hr, followed by washout, absence of FVIIa (FIG. 21A) [3] [nM] |
| --- | --- | --- | --- | --- | --- | --- |
| 25A-vc-MMAE (antibody, IgG1, V domains shown, MC-vc-PAB-MMAE on cysteines of the partially reduced antibody (chain and positions not stated), DAR 3-4, Antibody-drug conjugate (primary ADC) of the IgG1 antibody; also called 25A ADC; 25A conjugated to MC-vc-PAB-MMAE) VH: QVQLVQSGAEVKKPGASVKVSCKASGYTFDVYGISWVRQAPGQGLEWMGWIAPYNGNTNYAQKLQGRVTMTTDTSTSTAYMELRSLRSDDTAVYYCARDAGTYSPFGYGMDVWGQGTTVTVSS VL: DIQMTQSPSTLSASVGDRVTITCRASQSISSWLAWYQQKPGKAPKLLIYKASSLESGVPSRFSGSGSGTEFTLTISSLQPDDFATYYCQQFQSLPPFTFGGGTKVEIK | 0.09 | 0.06 | 0.14 | 0.34 | 0.35 | 0.18 |
| anti-TF antibody 25G1 conjugated to MC-vc-PAB-MMAE (antibody, IgG1, V domains shown, MC-vc-PAB-MMAE on cysteines of the partially reduced antibody (chain and positions not stated), DAR 3-4, Antibody-drug conjugate (primary ADC) of the IgG1 antibody; also called 25G1 ADC) VH: QVQLVQSGAEVKKPGASVKVSCKASGYTFRSYGISWVRQAPGQGLEWMGWVAPYSGNTNYAQKLQGRVTMTTDTSTSTAYMELRSLRSDDTAVYYCARDAGTYSPYGYGMDVWGQGTTVTVSS VL: DIQMTQSPSTLSASVGDRVTITCRASHSIDSWLAWYQQKPGKAPKLLIYKASYLESGVPSRFSGSGSGTEFTLTISSLQPDDFATYYCQLFQSLPPFTFGGGTKVEIK | 0.06 | 0.04 | 0.09 | 0.17 | 0.19 | 0.1 |
| 25A3-vc-MMAE (antibody, IgG1, V domains shown, MC-vc-PAB-MMAE on cysteines of the partially reduced antibody (chain and positions not stated), DAR 3-4, Antibody-drug conjugate (primary ADC) of the IgG1 antibody; also called 25A3 ADC; 25A3 MMAE ADC) VH: QVQLVQSGAEVKKPGASVKVSCKASGYTFDVYGISWVRQAPGQGLEWMGWIAPYSGNTNYAQKLQGRVTMTTDTSTSTAYMELRSLRSDDTAVYYCARDAGTYSPFGYGMDVWGQGTTVTVSS VL: DIQMTQSPSTLSASVGDRVTITCQASQSINNWLAWYQQKPGKAPKLLIYKAYNLESGVPSRFSGSGSGTEFTLTISSLQPDDFATYYCQLFQSLPPFTFGGGTKVEIK | 0.07 | 0.05 | 0.11 | 0.17 | 0.19 | 0.12 |
| anti-TF antibody 29E conjugated to MC-vc-PAB-MMAE (antibody, IgG1, V domains shown, MC-vc-PAB-MMAE on cysteines of the partially reduced antibody (chain and positions not stated), DAR 3-4, Antibody-drug conjugate (primary ADC) of the IgG1 antibody; also called 29E ADC) VH: QVQLVESGGGVVQPGRSLRLSCAASGFTFRSYGMHWVRQAPGKGLEWVAVITYDGINKYYADSVEGRFTISRDNSKNTLYLQMNSLRAEDTAVYYCARDGVYYGVYDYWGQGTLVTVSS VL: not shown | 0.06 | 0.04 | 0.07 | 0.25 | 0.2 | 0.13 |
| anti-TF antibody 39A conjugated to MC-vc-PAB-MMAE (antibody, IgG1, V domains shown, MC-vc-PAB-MMAE on cysteines of the partially reduced antibody (chain and positions not stated), DAR 3-4, Antibody-drug conjugate (primary ADC) of the IgG1 antibody; also called 39A ADC) VH: QVQLVQSGAEVKKPGSSVKVSCKASGGTFSSNAIGWVRQAPGQGLEWMGSIIPIIGFANYAQKFQGRVTITADESTSTAYMELSSLRSEDTAVYYCARDSGYYYGASSFGMDVWGQGTTVTVSS VL: EIVMTQSPATLSVSPGERATLSCRASQSVSSNLAWYQQKPGQAPRLLIYGASTRATGIPARFSGSGSGTEFTLTISSLQSEDFAVYYCEQYNNLPLTFGGGTKVEIK | 0.05 | 0.04 | 0.05 | 0.1 | 0.12 | 0.09 |
